The text below walks through data of patent publication US20210063414A1, “METHODS FOR PREVENTING AND/OR TREATING BONE LOSS CONDITIONS BY MODULATING IRISIN” (Dana-Farber Cancer Institute, Inc., priority 2018, published 2021).

In assay [1] the target is T1, CD81 antigen (Cd81) of MLO-Y4 cells (mouse) (UniProt P35762).
T1 sequence (looked up): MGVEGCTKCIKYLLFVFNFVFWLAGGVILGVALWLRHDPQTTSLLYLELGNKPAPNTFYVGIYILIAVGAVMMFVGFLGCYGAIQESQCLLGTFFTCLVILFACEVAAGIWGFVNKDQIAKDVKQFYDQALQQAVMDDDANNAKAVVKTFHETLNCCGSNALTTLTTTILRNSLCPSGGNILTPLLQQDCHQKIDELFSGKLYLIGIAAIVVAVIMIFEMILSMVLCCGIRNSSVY
Briefly: DTSSP cross-linking on MLO-Y4 cells, his-tag pull-down, TMT mass spectrometry; adipsin (control) channel.

Assay [2] concerns the target Fibronectin type III domain-containing protein 3B (Fndc3b) of MLO-Y4 cells (mouse) (UniProt Q6NWW9). The assay is described as above.
The target in assay [3] is T2, Integrin alpha-V (Itgav) of MLO-Y4 cells (mouse) (UniProt P43406).
T2 sequence (looked up): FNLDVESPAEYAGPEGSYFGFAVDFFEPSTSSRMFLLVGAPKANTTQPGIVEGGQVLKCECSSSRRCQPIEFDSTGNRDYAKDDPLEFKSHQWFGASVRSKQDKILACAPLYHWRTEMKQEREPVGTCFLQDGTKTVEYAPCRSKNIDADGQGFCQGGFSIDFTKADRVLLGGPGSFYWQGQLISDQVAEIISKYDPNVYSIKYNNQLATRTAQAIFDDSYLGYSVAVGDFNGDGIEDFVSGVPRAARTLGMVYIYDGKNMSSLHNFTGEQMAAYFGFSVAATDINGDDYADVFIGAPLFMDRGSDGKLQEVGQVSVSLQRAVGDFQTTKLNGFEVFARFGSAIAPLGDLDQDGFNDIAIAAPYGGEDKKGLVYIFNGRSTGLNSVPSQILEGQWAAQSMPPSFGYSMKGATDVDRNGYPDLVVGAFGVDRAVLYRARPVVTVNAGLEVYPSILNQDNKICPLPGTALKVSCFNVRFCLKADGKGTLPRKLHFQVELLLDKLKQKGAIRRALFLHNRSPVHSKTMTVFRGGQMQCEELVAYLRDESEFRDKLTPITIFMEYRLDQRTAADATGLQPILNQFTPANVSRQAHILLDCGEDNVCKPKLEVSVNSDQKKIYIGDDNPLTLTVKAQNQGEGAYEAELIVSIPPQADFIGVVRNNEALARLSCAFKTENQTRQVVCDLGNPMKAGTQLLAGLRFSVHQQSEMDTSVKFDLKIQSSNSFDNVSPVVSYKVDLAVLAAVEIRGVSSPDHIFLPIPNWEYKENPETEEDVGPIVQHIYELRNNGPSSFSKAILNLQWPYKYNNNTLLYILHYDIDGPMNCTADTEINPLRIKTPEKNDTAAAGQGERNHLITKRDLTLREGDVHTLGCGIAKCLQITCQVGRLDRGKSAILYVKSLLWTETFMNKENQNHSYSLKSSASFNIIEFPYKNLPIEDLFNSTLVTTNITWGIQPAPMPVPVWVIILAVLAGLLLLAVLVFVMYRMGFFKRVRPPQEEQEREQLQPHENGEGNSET
The description is as above.

The target in assay [4] is Integrin beta-1 (Itgb1) of MLO-Y4 cells (mouse) (UniProt P09055). Described as above.
Integrin beta-1 (Itgb1) of MLO-Y4 cells (mouse), sequence (P09055 21-798): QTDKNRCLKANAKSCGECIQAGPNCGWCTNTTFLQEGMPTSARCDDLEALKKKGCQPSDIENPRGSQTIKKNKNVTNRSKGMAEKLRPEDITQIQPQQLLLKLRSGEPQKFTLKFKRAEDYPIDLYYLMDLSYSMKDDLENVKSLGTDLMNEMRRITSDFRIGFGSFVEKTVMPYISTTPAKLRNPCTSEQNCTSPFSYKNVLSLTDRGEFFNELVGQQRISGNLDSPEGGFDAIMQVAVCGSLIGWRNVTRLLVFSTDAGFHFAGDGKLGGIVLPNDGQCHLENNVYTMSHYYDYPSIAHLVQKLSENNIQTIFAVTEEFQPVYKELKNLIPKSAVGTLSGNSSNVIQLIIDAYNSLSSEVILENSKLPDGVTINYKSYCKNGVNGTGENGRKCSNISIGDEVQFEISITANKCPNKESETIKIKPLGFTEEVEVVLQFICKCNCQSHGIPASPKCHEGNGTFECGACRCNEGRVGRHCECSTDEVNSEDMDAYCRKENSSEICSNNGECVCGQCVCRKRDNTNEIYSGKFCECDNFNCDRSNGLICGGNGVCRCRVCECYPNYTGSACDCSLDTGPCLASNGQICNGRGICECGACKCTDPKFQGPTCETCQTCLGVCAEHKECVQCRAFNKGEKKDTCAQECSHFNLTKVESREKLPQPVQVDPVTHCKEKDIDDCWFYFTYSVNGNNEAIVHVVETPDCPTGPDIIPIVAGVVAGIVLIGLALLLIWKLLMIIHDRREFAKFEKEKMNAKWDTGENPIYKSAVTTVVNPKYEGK
The target of assay [5] is T3, Integrin beta-5 (Itgb5) of MLO-Y4 cells (mouse) (UniProt O70309).
T3 sequence (looked up): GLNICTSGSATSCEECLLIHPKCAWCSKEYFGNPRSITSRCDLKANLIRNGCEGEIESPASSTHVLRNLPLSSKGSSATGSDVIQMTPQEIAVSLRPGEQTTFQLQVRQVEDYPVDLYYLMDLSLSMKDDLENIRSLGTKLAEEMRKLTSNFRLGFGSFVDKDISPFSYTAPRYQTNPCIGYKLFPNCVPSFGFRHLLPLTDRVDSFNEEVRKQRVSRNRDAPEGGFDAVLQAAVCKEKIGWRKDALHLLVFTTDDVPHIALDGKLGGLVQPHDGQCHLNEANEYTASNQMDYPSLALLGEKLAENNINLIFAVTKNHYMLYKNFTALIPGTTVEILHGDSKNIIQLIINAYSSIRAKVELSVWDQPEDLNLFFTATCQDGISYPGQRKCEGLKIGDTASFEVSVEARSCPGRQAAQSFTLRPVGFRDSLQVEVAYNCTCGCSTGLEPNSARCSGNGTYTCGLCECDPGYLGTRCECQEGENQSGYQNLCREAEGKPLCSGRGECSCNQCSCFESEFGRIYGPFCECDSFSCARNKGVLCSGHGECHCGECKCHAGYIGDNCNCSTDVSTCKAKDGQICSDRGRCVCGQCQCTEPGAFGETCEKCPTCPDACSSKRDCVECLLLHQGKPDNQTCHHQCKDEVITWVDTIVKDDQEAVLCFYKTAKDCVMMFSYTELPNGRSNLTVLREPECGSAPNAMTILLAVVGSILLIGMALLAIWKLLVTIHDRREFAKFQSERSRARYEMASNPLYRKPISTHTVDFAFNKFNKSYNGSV
The description is as above.

Assay [6] concerns the target T4, Membrane magnesium transporter 1 (Mmgt1) of MLO-Y4 cells (mouse) (UniProt Q8K273).
T4 sequence (looked up): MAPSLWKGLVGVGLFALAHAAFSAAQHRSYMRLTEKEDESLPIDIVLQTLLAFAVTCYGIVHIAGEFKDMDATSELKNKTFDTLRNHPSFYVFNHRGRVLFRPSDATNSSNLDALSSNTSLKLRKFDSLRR
The description is as above.

The target in assay [7] is Protocadherin alpha-4 (Pcdha4) of MLO-Y4 cells (mouse) (UniProt O88689). The description is as above.
Protocadherin alpha-4 (Pcdha4) of MLO-Y4 cells (mouse), sequence (O88689 other isoform, or with tags, fused parts or gaps): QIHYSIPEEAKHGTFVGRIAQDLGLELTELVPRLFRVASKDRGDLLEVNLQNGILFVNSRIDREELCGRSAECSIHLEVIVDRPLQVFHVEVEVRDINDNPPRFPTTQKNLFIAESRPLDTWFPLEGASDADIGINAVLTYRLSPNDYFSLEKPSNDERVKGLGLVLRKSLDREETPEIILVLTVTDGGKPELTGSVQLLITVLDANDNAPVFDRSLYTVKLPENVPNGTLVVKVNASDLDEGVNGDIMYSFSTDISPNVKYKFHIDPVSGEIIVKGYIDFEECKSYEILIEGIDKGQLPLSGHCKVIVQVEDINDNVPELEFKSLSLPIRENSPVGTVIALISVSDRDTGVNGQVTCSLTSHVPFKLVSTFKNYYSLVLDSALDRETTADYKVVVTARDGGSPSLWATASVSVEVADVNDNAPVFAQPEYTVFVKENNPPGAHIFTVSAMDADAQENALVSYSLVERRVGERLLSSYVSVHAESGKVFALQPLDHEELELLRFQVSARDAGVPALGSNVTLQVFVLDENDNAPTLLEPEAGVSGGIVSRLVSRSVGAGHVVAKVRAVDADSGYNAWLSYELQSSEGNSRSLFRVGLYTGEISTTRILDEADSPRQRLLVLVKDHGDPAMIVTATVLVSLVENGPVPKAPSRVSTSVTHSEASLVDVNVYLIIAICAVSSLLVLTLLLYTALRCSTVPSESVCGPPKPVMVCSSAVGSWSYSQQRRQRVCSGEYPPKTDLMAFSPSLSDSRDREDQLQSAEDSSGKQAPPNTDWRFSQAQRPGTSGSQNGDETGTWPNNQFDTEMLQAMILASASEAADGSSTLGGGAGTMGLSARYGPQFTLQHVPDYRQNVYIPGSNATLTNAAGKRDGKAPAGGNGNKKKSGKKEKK
The target of assay [8] is T1, CD81 antigen (Cd81) of MLO-Y4 cells (mouse). Briefly: DTSSP cross-linking on MLO-Y4 cells, his-tag pull-down, TMT mass spectrometry; irisin channel.
The target in assay [9] is Fibronectin type III domain-containing protein 3B (Fndc3b) of MLO-Y4 cells (mouse) (UniProt Q6NWW9). The assay is described as above.
Fibronectin type III domain-containing protein 3B (Fndc3b) of MLO-Y4 cells (mouse), sequence (Q6NWW9 whole entry, the tested form may be a part): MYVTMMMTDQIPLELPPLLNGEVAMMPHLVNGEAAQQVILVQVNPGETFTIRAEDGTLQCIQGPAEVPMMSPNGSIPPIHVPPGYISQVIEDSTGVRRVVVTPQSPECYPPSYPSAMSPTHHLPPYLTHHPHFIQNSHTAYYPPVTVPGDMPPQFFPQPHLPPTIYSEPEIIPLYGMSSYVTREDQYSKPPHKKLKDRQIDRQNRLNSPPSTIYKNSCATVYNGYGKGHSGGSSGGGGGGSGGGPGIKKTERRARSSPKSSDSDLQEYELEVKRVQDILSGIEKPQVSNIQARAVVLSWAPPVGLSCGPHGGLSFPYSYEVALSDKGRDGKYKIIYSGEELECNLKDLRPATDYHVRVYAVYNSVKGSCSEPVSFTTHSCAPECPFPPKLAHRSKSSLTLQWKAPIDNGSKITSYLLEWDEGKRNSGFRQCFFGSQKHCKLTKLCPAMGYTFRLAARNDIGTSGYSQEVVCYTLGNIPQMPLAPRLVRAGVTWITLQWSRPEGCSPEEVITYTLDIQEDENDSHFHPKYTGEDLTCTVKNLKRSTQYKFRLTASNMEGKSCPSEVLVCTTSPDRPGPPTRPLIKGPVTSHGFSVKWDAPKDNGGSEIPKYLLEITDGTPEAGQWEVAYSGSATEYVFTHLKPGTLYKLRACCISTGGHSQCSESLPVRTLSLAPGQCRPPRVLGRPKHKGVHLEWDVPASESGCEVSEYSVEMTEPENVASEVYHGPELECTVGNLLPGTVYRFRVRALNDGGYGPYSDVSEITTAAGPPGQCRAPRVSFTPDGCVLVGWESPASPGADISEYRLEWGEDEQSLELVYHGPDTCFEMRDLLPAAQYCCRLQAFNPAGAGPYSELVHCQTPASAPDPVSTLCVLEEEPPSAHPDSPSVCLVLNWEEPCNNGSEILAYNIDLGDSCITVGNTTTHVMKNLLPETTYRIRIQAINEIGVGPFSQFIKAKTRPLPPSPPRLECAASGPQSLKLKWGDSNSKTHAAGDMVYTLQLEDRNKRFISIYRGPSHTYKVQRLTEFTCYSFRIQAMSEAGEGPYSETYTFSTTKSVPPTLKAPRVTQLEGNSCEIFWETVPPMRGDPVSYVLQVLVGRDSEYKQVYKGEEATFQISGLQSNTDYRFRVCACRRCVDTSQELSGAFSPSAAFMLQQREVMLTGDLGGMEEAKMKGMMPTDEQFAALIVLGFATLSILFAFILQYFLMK
Assay [10] deals with Membrane magnesium transporter 1 (Mmgt1) of MLO-Y4 cells (mouse) (UniProt Q8K273). The assay is described as above.
In assay [11] the target is Protocadherin alpha-4 (Pcdha4) of MLO-Y4 cells (mouse) (UniProt O88689). Described as above.
The target in assay [12] is T1, CD81 antigen (Cd81) of MLO-Y4 cells (mouse). Briefly: DTSSP cross-linking of his-tag ligand on MLO-Y4 cells, his-tag pull-down, TMT quantitative mass spectrometry; ratio to his-tag adipsin control.
Assay [13] concerns the target Fibronectin type III domain-containing protein 3B (Fndc3b) of MLO-Y4 cells (mouse) (UniProt Q6NWW9). The assay is described as above.
The target in assay [14] is Membrane magnesium transporter 1 (Mmgt1) of MLO-Y4 cells (mouse) (UniProt Q8K273). Described as above.
The target in assay [15] is Protocadherin alpha-4 (Pcdha4) of MLO-Y4 cells (mouse) (UniProt O88689). The assay is described as above.

His-tag adipsin (R&D Systems, Cat. # AF1824-SP), sequence (P00746 26-253): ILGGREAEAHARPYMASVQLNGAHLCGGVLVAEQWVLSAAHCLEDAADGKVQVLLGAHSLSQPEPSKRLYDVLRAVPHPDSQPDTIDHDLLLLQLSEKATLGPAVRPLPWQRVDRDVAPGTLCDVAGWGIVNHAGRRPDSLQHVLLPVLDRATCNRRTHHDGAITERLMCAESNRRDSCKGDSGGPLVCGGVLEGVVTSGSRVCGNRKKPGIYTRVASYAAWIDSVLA

As to “His-tag adipsin (R&D Systems, Cat. # AF1824-SP)”, the summed signal-to-noise value for TMT channel in [1] was 105; in assay [2], 449; in assay [3], 54.4; in assay [4] it was 250; in [5], 148; in [6], 17.4. In assay [7], the summed signal-to-noise value for TMT channel stood at 17.1.
With “His-tag recombinant irisin (irisin (human/mouse) with a C-terminal 10 his tag, produced in HEK293 cells) (from UniProt Q8K3V5 60-171) (ligand)”, the summed signal-to-noise value for TMT channel in assay [8] was determined as 427; in assay [9], 1290; in assay [10] it was 51.2; in assay [11], 75.2. Also, the irsin/adipsin (TMT ratio) stood at 4.05 in assay [12], 2.88 in assay [13], 2.94 in assay [14] and 4.39 in [15].
